The supplement of paper PMC11316812
± gives the standard deviation of the averaged measurements.

Tests used:
hTERT-HMEC = assay: percentage of EdU-negative (G0-arrested) nuclei per well, 72 h; higher = more G0 arrest; conditions: reference: sequence is the full UniProt precursor, the tested protein was the secreted form or ectodomain
MCF7 = assay: as above; conditions: reference: sequence is the full UniProt precursor, the tested protein was the secreted form or ectodomain
[1] = protein concentration 0.01125 µM
[2] = protein concentration 0.1125 µM
[3] = protein concentration 0.0225 µM
[4] = protein concentration 0.0214725 µM
[5] = protein concentration 0.214725 µM
[6] = protein concentration 0.0257143 µM
[7] = protein concentration 0.257143 µM
[8] = protein concentration 0.0195 µM
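Note: secreted proteins added to cultured cells, EdU pulse at the end, nuclei found by Hoechst imaging, EdU status from nuclear versus surrounding ring intensity ratio, PBS as neutral control.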

MIFLTALPLFWIMISASRGGHWGAWMPSSISAFEGTCVSIPCRFDFPDELRPAVVHGVWYFNSPYPKNYPPVVFKSRTQVVHESFQGRSRLLGDLGLRNCTLLLSNVSPELGGKYYFRGDLGGYNQYTFSEHSVLDIVNTPNIVVPPEVVAGTEVEVSCMVPDNCPELRPELSWLGHEGLGEPAVLGRLREDEGTWVQVSLLHFVPTREANGHRLGCQASFPNTTLQFEGYASMDVKYPPVIVEMNSSVEAIEGSHVSLLCGADSNPPPLLTWMRDGTVLREAVAESLLLELEEVTPAEDGVYACLAENAYGQDNRTVGLSVMYAPWKPTVNGTMVAVEGETVSILCSTQSNPDPILTIFKEKQILSTVIYESELQLELPAVSPEDDGEYWCVAENQYGQRATAFNLSVEFAPVLLLESHCAAARDTVQCLCVVKSNPEPSVAFELPSRNVTVNESEREFVYSERSGLVLTSILTLRGQAQAPPRVICTARNLYGAKSLELPFQGAHRLMWAKIGPVGAVVAFAILIAIVCYITQTRRKKNVTESPSFSAGDNPPVLFSSDFRISGAPEKYESERRLGSERRLLGLRGEPPELDLSYSHSDLGKRPTKDSYTLTEELAEYAEIRVK
percentage of EdU-negative (hTERT-HMEC; [1]): 5.66 ± 0.36%
percentage of EdU-negative (hTERT-HMEC; [2]): 6.55 ± 0.84%
percentage of EdU-negative (MCF7; [1]): 28.5 ± 0.33%
percentage of EdU-negative (MCF7; [2]): 28.73 ± 0.11%

MIFPWKCQSTQRDLWNIFKLWGWTMLCCDFLAHHGTDCWTYHYSEKPMNWQRARRFCRDNYTDLVAIQNKAEIEYLEKTLPFSRSYYWIGIRKIGGIWTWVGTNKSLTEEAENWGDGEPNNKKNKEDCVEIYIKRNKDAGKWNDDACHKLKAALCYTASCQPWSCSGHGECVEIINNYTCNCDVGYYGPQCQFVIQCEPLEAPELGTMDCTHPLGNFSFSSQCAFSCSEGTNLTGIEETTCGPFGNWSSPEPTCQVIQCEPLSAPDLGIMNCSHPLASFSFTSACTFICSEGTELIGKKKTICESSGIWSNPSPICQKLDKSFSMIKEGDYNPLFIPVAVMVTAFSGLAFIIWLARRLKKGKKSKRSMNDPY
percentage of EdU-negative (hTERT-HMEC; [3]): 4.92 ± 0.1%
percentage of EdU-negative (hTERT-HMEC; protein concentration 0.225 µM): 11.1 ± 1.2%
percentage of EdU-negative (MCF7; [3]): 24.2 ± 0.78%
percentage of EdU-negative (MCF7; protein concentration 0.225 µM): 32.8 ± 4%

MIHGRSVLHIVASLIILHLSGATKKGTEKQTTSETQKSVQCGTWTKHAEGGIFTSPNYPSKYPPDRECIYIIEAAPRQCIELYFDEKYSIEPSWECKFDHIEVRDGPFGFSPIIGRFCGQQNPPVIKSSGRFLWIKFFADGELESMGFSARYNFTPDPDFKDLGALKPLPACEFEMGGSEGIVESIQIMKEGKATASEAVDCKWYIRAPPRSKIYLRFLDYEMQNSNECKRNFVAVYDGSSSVEDLKAKFCSTVANDVMLRTGLGVIRMWADEGSRNSRFQMLFTSFQEPPCEGNTFFCHSNMCINNTLVCNGLQNCVYPWDENHCKEKRKTSLLDQLTNTSGTVIGVTSCIVIILIIISVIVQIKQPRKKYVQRKSDFDQTVFQEVFEPPHYELCTLRGTGATADFADVADDFENYHKLRRSSSKCIHDHHCGSQLSSTKGSRSNLSTRDASILTEMPTQPGKPLIPPMNRRNILVMKHSYSQDAADACDIDEIEEVPTTSHRLSRHDKAVQRFCLIGSLSKHESEYNTTRV [Q8TDF5]
percentage of EdU-negative (hTERT-HMEC; [4]): 4.64 ± 0.48%
percentage of EdU-negative (hTERT-HMEC; [5]): 7.76 ± 0.38%
percentage of EdU-negative (MCF7; [4]): 23.53 ± 0.037%
percentage of EdU-negative (MCF7; [5]): 26.76 ± 0.058%

MIHTNLKKKFSCCVLVFLLFAVICVWKEKKKGSYYDSFKLQTKEFQVLKSLGKLAMGSDSQSVSSSSTQDPHRGRQTLGSLRGLAKAKPEASFQVWNKDSSSKNLIPRLQKIWKNYLSMNKYKVSYKGPGPGIKFSAEALRCHLRDHVNVSMVEVTDFPFNTSEWEGYLPKESIRTKAGPWGRCAVVSSAGSLKSSQLGREIDDHDAVLRFNGAPTANFQQDVGTKTTIRLMNSQLVTTEKRFLKDSLYNEGILIVWDPSVYHSDIPKWYQNPDYNFFNNYKTYRKLHPNQPFYILKPQMPWELWDILQEISPEEIQPNPPSSGMLGIIIMMTLCDQVDIYEFLPSKRKTDVCYYYQKFFDSACTMGAYHPLLYEKNLVKHLNQGTDEDIYLLGKATLPGFRTIHC
percentage of EdU-negative (hTERT-HMEC; [6]): 4.71 ± 0.62%
percentage of EdU-negative (hTERT-HMEC; [7]): 4.48 ± 0.15%
percentage of EdU-negative (MCF7; [6]): 23.7 ± 0.62%
percentage of EdU-negative (MCF7; [7]): 26.3 ± 1.7%

MIIDSSRIPSFTQLHSTMTRAPLLLLCVALVLLGHVNGATVRNEDKWKPLNNPRNRDLFFRRLQAYFKGRGLDLGTFPNPFPTNENPRPLSFQSELTASASADYEEQKNSFHNYLKG [Q6UXQ4]
percentage of EdU-negative (hTERT-HMEC; [8]): 4.53 ± 0.63%
percentage of EdU-negative (hTERT-HMEC; protein concentration 0.195 µM): 7.36 ± 0.4%
percentage of EdU-negative (MCF7; [8]): 24.6 ± 2.1%
percentage of EdU-negative (MCF7; protein concentration 0.195 µM): 25.2 ± 1%

MIIVAHVLLILLGATEILQADLLPDEKISLLPPVNFTIKVTGLAQVLLQWKPNPDQEQRNVNLEYQVKINAPKEDDYETRITESKCVTILHKGFSASVRTILQNDHSLLASSWASAELHAPPGSPGTSIVNLTCTTNTTEDNYSRLRSYQVSLHCTWLVGTDAPEDTQYFLYYRYGSWTEECQEYSKDTLGRNIACWFPRTFILSKGRDWLAVLVNGSSKHSAIRPFDQLFALHAIDQINPPLNVTAEIEGTRLSIQWEKPVSAFPIHCFDYEVKIHNTRNGYLQIEKLMTNAFISIIDDLSKYDVQVRAAVSSMCREAGLWSEWSQPIYVGNDEHKPLREWFVIVIMATICFILLILSLICKICHLWIKLFPPIPAPKSNIKDLFVTTNYEKAGSSETEIEVICYIEKPGVETLEDSVF
percentage of EdU-negative (hTERT-HMEC; [3]): 4.86 ± 0.92%
percentage of EdU-negative (hTERT-HMEC; protein concentration 0.225 µM): 5.18 ± 0.52%
percentage of EdU-negative (MCF7; [3]): 25.4 ± 1.1%
percentage of EdU-negative (MCF7; protein concentration 0.225 µM): 25.9 ± 1.3%
